Assay results published in publication PMC11026580 (2024).

Target: FcαRI (CD89) (Homo sapiens, UniProt P24071)
Experiment: SPR

Sequence of FcαRI (CD89) (P24071 22-287): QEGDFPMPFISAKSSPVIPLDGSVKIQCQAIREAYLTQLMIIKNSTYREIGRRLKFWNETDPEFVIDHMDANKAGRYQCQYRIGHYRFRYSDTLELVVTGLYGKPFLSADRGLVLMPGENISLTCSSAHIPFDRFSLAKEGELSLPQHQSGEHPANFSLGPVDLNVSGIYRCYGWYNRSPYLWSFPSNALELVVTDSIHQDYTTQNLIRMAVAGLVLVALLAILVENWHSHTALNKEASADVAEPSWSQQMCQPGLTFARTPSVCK

Kd: ~300 nM
B1: IgA2 (glycoforms) (protein)
chain: ASPTSPKVFPLSLDSTPQDGNVVVACLVQGFFPQEPLSVTWSESGQNVTARNFPPSQDASGDLYTTSSQLTLPATQCPDGKSVTCHVKHYTNSSQDVTVPCRVPPPPPCCHPRLSLHRPALEDLLLGSEANLTCTLTGLRDASGATFTWTPSSGKSAVQGPPERDLCGCYSVSSVLPGCAQPWNHGETFTCTAAHPELKTPLTANITKSGNTFRPEVHLLPPPSEELALNELVTLTCLARGFSPKDVLVRWLQGSQELPREKYLTWASRQEPSQGTTTYAVTSILRVAAEDWKKGETFSCMVGHEALPLAFTQKTIDRMAGSCCVADWQMPPPYVVLDLPQETLEEETPGANLWPTTITFLTLFLLSLFYSTALTVTSVRGPSGKREGPQY
